# Test results: article PMC2928751 (2010)
# B1: Gli3(280-478), wild type [modified: [35S]-methionine labelled; [35S]-methionine labelled] [human] / GST-JNK3 [human] (parent complex)
# chain 1: SSPRLSARPSRKRTLSISPLSDHSFDLQTMIRTSPNSLVTILNNSRSSSSASGSYGHLSASAISPALSFTYSSAPVSLHMHQQILSRQQSLGSAFGHSPPLIHPAPTFPTQRPIPGIPTVLNPVQVSSGPSESSQNKPTSESAVSSTGDPMHNKRSKIKPDEDLPSPGARGQQEQPEGTTLVKEEGDKDESKQEPEVIY
# chain 2: MSLHFLYYCSEPTLDVKIAFCQGFDKQVDVSYIAKHYNMSKSKVDNQFYSVEVGDSTFTVLKRYQNLKPIGSGAQGIVCAAYDAVLDRNVAIKKLSRPFQNQTHAKRAYRELVLMKCVNHKNIISLLNVFTPQKTLEEFQDVYLVMELMDANLCQVIQMELDHERMSYLLYQMLCGIKHLHSAGIIHRDLKPSNIVVKSDCTLKILDFGLARTAGTSFMMTPYVVTRYYRAPEVILGMGYKENVDIWSVGCIMGEMVRHKILFPGRDYIDQWNKVIEQLGTPCPEFMKKLQPTVRNYVENRPKYAGLTFPKLFPDSLFPADSEHNKLKASQARDLLSKMLVIDPAKRISVDDALQHPYINVWYDPAEVEAPPPQIYDKQLDEREHTIEEWKELIYKEVMNSEEKTKNGVVKGQPSPSAQVQQ
# B2: Gli3(280-478), wild type [modified: [35S]-methionine labelled; [35S]-methionine labelled] [human] / GST-JNK1 [human] (parent complex)
# chain 1: B1 chain 1
# chain 2: MSRSKRDNNFYSVEIGDSTFTVLKRYQNLKPIGSGAQGIVCAAYDAILERNVAIKKLSRPFQNQTHAKRAYRELVLMKCVNHKNIIGLLNVFTPQKSLEEFQDVYIVMELMDANLCQVIQMELDHERMSYLLYQMLCGIKHLHSAGIIHRDLKPSNIVVKSDCTLKILDFGLARTAGTSFMMTPYVVTRYYRAPEVILGMGYKENVDLWSVGCIMGEMVCHKILFPGRDYIDQWNKVIEQLGTPCPEFMKKLQPTVRTYVENRPKYAGYSFEKLFPDVLFPADSEHNKLKASQARDLLSKMLVIDASKRISVDEALQHPYINVWYDPSEAEAPPPKIPDKQLDEREHTIEEWKELIYKEVMDLEERTKNGVIRGQPSPLAQVQQ
# Variants of: B1
# Experiment: GST pull-down of in vitro translated protein, quantified; 20 µg GST-JNK3; read off a plot
row,Variant,response
1,"chain 1 R11A, chain 1 K12A, chain 1 R13A, chain 1 L15A, chain 1 I17A",~0.35 % of input (axis unlabelled; 5% input bar = 5)

# Variants of: B2
# Experiment: GST pull-down of in vitro translated protein, quantified; 30 µg GST-JNK1; read off a plot
row,Variant,response
1,"chain 1 R11A, chain 1 K12A, chain 1 R13A, chain 1 L15A, chain 1 I17A",~0.2 % of input (axis unlabelled; 5% input bar = 5)
